Measured values taken from US20100226985A1, “VISCOELASTIC AQUEOUS GELS COMPRISING MICROSPHERES” (priority 2006, published 2010).

Assay: Lysozyme release from viscoelastic gels into release buffer (BCA protein assay)
Format: physicochemical
Conditions: after approximately one month; gel solid content 15 wt.-%, DS 4 and 8, lysozyme 1 wt.-% in buffer; release buffer Hepes pH 7
Protocol: Viscoelastic gel compositions with a solid content of 15 wt.-% comprising lysozyme as a model active compound were prepared by dispersing equal amounts of dex-HEMA-L-lactate and dex-HEMA-D-lactate microspheres (DS 4 and 8) in lysozyme-containing (1 wt.-%) aqueus buffer solution. The microparticles were allowed to hydrate overnight at 4° C. Viscoelastic gels were formed which were then tested for lysozyme release using the method described by Van Tomme et al. JCR 2005; 110:67-78. In short, samples of 500 mg of the gels were transferred in a release device and 3 mL release buffer (Hepes, pH 7, 100 mM, 150 mM NaCl, 0.02% NaN3). At certain time intervals, samples were taken and analysed for their protein content using a BCA® protein assay. After approximately one month, about 80% of the entrapped lysozyme was released. No significant difference could be detected between the two batches (i.e. with DS 4 and DS 8) were observed.

## lysozyme
  entrapped lysozyme released: about 80%
